Source: PMC8347620, “Arabidopsis G-Protein β Subunit AGB1 Negatively Regulates DNA Binding of MYB62, a Suppressor in the Gibberellin Pathway”

Target: T1, MBP-MYB62 (Arabidopsis thaliana, UniProt Q9C9G7 1-286)
T1 sequence: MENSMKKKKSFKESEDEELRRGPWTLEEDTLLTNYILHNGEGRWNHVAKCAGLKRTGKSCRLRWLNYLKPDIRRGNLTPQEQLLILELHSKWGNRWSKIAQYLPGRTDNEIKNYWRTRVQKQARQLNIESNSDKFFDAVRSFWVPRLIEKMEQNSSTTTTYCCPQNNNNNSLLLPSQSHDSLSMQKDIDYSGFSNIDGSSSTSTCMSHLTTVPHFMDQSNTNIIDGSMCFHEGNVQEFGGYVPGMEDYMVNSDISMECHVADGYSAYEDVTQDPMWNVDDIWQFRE
Assay: EMSA; EMSA: 2.5% glycerol, 50 mM KCl, 5 mM MgCl2, 10 mM EDTA, 30 min, room temperature; pH not stated
Details: protein: recombinant; tags: MBP (pMAL-c2x); label: biotin on both strands (BIO printed before each oligo); blunt

B1: ProGA2ox7 probe (MYB element) (dsDNA)
DNA 1: AAGCCCTTGGTTGGGGATGG
DNA 2: CCATCCCCAACCAAGGGCTT
B1: binds.
